Target: T1, dCREB2-a (Drosophila melanogaster) (UniProt Q9VWW0)
T1 sequence: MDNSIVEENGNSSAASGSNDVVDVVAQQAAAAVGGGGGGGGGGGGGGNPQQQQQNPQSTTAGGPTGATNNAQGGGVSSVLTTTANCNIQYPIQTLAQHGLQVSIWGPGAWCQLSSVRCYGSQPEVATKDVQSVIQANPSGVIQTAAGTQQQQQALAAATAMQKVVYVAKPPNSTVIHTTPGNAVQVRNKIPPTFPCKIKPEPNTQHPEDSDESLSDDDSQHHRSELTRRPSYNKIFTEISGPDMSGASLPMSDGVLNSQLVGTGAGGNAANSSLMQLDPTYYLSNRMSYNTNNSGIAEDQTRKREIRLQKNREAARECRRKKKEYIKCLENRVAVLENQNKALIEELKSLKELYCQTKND
Test: cell_activity
Details: F9 cells, with PKA, relative to PKA alone

With “D(-71) CAT somatostatin promoter CRE fragment” as the substance, how does the activity read?
The activity was 5.4 fold.

— patent US5929223
